The target in the assay is human Epidermal Growth Factor Receptor (huEGFR) over-expressed in mcl-1-/- mouse embryonic fibroblasts (human, UniProt P00533 25-1210). Put plainly: cell-based or functional assay.

Where a chain is given by its changes, count along the chain named. A value given as a limit tells only on which side of the number the result lay.

B1: AbB-ZZ (antibody, V domains shown)
VH: EVQLQESGPGLVKPSQTLSLTCTVSGYSISNDFAWNWIRQPPGKGLEWMGYISYKGNTRYQPSLKSRITISRDTSKNQFFLKLNSVTAADTATYYCVTASRGFPWWGQGTLVTVSS
VL: DIQMTQSPSSMSVSVGDRVTITCHSSQDINSNIGWLQQKPGKSFKGLIYHGTNLDDGVPSRFSGSGSGTDYTLTISSLQPEDFATYYCVQYAQFPWTFGGGTKLEIKR
modifications: synthon ZZ on reduced interchain Cys
As to B1, the “huEGFR^+ mcl-1^-/- MEF EC50” value is 7.4 nM.

B2: AbK-AAA (antibody, V domains shown)
VH: B1 VH with N31R, K55N
VL: B1 VL with N30T, S31Y, I33V, T52S, D56H, A92D, Q93D
modifications: synthon AAA on reduced interchain Cys
On to B2, for which the “huEGFR^+ mcl-1^-/- MEF EC50” value was determined as 3.4 nM.

B3: AbG-ZZ (antibody, V domains shown)
VH: B1 VH with P41L, F103L, W105Y
VL: B1 VL with N30T, S31Y, T52A, A92D, Q93E
modifications: synthon ZZ on reduced interchain Cys
Turning to B3, the “huEGFR^+ mcl-1^-/- MEF EC50” value turned out to be 68 nM.

B4: AbB-WD (antibody, V domains shown)
VH: B1 VH
VL: B1 VL
modifications: synthon WD on reduced interchain Cys
With B4, the “huEGFR^+ mcl-1^-/- MEF EC50” value is 23 nM.

B5: AbA-AAD (antibody, V domains shown)
VH: B1 VH with N31R, K55N, W105Y
VL: B1 VL
modifications: synthon AAD on reduced interchain Cys
On to B5, for which the “huEGFR^+ mcl-1^-/- MEF EC50” value stood at 65 nM.

B6: AbB-SE (antibody, V domains shown)
VH: B1 VH
VL: B1 VL
modifications: synthon SE on reduced interchain Cys
For the molecule B6, the “huEGFR^+ mcl-1^-/- MEF EC50” value came out at 39 nM.

B7: AbG-SR (antibody, V domains shown)
VH: B1 VH with P41L, F103L, W105Y
VL: B1 VL with N30T, S31Y, T52A, A92D, Q93E
modifications: synthon SR on reduced interchain Cys
As for B7, the “huEGFR^+ mcl-1^-/- MEF EC50” value was 7 nM.

B8: AbG-ZT (antibody, V domains shown)
VH: B1 VH with P41L, F103L, W105Y
VL: B1 VL with N30T, S31Y, T52A, A92D, Q93E
modifications: synthon ZT on reduced interchain Cys
As for B8, the “huEGFR^+ mcl-1^-/- MEF EC50” value turned out to be 33 nM.

B9: AbG-SE (antibody, V domains shown)
VH: B1 VH with P41L, F103L, W105Y
VL: B1 VL with N30T, S31Y, T52A, A92D, Q93E
modifications: synthon SE on reduced interchain Cys
Regarding B9, the “huEGFR^+ mcl-1^-/- MEF EC50” value amounted to 24 nM.

B10: AbB-TV (antibody, V domains shown)
VH: B1 VH
VL: B1 VL
modifications: synthon TV on reduced interchain Cys
In the case of B10, the “huEGFR^+ mcl-1^-/- MEF EC50” value is 2.4 nM.

B11: AbG-CZ (antibody, V domains shown)
VH: B1 VH with P41L, F103L, W105Y
VL: B1 VL with N30T, S31Y, T52A, A92D, Q93E
modifications: synthon CZ on reduced interchain Cys
As for B11, the “huEGFR^+ mcl-1^-/- MEF EC50” value is 3.4 nM.

B12: AbG-TX (antibody, V domains shown)
VH: B1 VH with P41L, F103L, W105Y
VL: B1 VL with N30T, S31Y, T52A, A92D, Q93E
modifications: synthon TX on reduced interchain Cys
B12: the “huEGFR^+ mcl-1^-/- MEF EC50” value amounted to 5.3 nM.

B13: AbG-YY (antibody, V domains shown)
VH: B1 VH with P41L, F103L, W105Y
VL: B1 VL with N30T, S31Y, T52A, A92D, Q93E
modifications: synthon YY on reduced interchain Cys
On to B13, for which the “huEGFR^+ mcl-1^-/- MEF EC50” value is > 500 nM.

B14: AbK-ZT (antibody, V domains shown)
VH: B1 VH with N31R, K55N
VL: B1 VL with N30T, S31Y, I33V, T52S, D56H, A92D, Q93D
modifications: synthon ZT on reduced interchain Cys
Take B14: the “huEGFR^+ mcl-1^-/- MEF EC50” value came to 0.2 nM.

B15: AbB-YY (antibody, V domains shown)
VH: B1 VH
VL: B1 VL
modifications: synthon YY on reduced interchain Cys
As to B15, the “huEGFR^+ mcl-1^-/- MEF EC50” value amounted to 51 nM.

B16: AbK-YG (antibody, V domains shown)
VH: B1 VH with N31R, K55N
VL: B1 VL with N30T, S31Y, I33V, T52S, D56H, A92D, Q93D
modifications: synthon YG on reduced interchain Cys
Take B16: the “huEGFR^+ mcl-1^-/- MEF EC50” value came to 37 nM.

B17: AbG-YG (antibody, V domains shown)
VH: B1 VH with P41L, F103L, W105Y
VL: B1 VL with N30T, S31Y, T52A, A92D, Q93E
modifications: synthon YG on reduced interchain Cys
For the molecule B17, the “huEGFR^+ mcl-1^-/- MEF EC50” value was 1 nM.

B18: AbA-TX (antibody, V domains shown)
VH: B1 VH with N31R, K55N, W105Y
VL: B1 VL
modifications: synthon TX on reduced interchain Cys
Take B18: the “huEGFR^+ mcl-1^-/- MEF EC50” value turned out to be 16 nM.

B19: AbB-SR (antibody, V domains shown)
VH: B1 VH
VL: B1 VL
modifications: synthon SR on reduced interchain Cys
Take B19: the “huEGFR^+ mcl-1^-/- MEF EC50” value stood at 7 nM.

B20: AbK-YY (antibody, V domains shown)
VH: B1 VH with N31R, K55N
VL: B1 VL with N30T, S31Y, I33V, T52S, D56H, A92D, Q93D
modifications: synthon YY on reduced interchain Cys
For B20, the “huEGFR^+ mcl-1^-/- MEF EC50” value stood at 47 nM.

B21: AbG-KZ (antibody, V domains shown)
VH: B1 VH with P41L, F103L, W105Y
VL: B1 VL with N30T, S31Y, T52A, A92D, Q93E
modifications: synthon KZ on reduced interchain Cys
As to B21, the “huEGFR^+ mcl-1^-/- MEF EC50” value worked out at 96 nM.

B22: AbA-AAA (antibody, V domains shown)
VH: B1 VH with N31R, K55N, W105Y
VL: B1 VL
modifications: synthon AAA on reduced interchain Cys
Turning to B22, the “huEGFR^+ mcl-1^-/- MEF EC50” value worked out at 220 nM.

B23: AbG-AAA (antibody, V domains shown)
VH: B1 VH with P41L, F103L, W105Y
VL: B1 VL with N30T, S31Y, T52A, A92D, Q93E
modifications: synthon AAA on reduced interchain Cys
Consider B23, for which the “huEGFR^+ mcl-1^-/- MEF EC50” value was 220 nM.

B24: AbK-TV (antibody, V domains shown)
VH: B1 VH with N31R, K55N
VL: B1 VL with N30T, S31Y, I33V, T52S, D56H, A92D, Q93D
modifications: synthon TV on reduced interchain Cys
As to B24, the “huEGFR^+ mcl-1^-/- MEF EC50” value came out at 0.15 nM.

B25: AbK-TX (antibody, V domains shown)
VH: B1 VH with N31R, K55N
VL: B1 VL with N30T, S31Y, I33V, T52S, D56H, A92D, Q93D
modifications: synthon TX on reduced interchain Cys
Take B25: the “huEGFR^+ mcl-1^-/- MEF EC50” value came out at 0.79 nM.

B26: AbA-TV (antibody, V domains shown)
VH: B1 VH with N31R, K55N, W105Y
VL: B1 VL
modifications: synthon TV on reduced interchain Cys
Take B26: the “huEGFR^+ mcl-1^-/- MEF EC50” value is 3 nM.

B27: AbA-LB (antibody, V domains shown)
VH: B1 VH with N31R, K55N, W105Y
VL: B1 VL
modifications: synthon LB on reduced interchain Cys
With B27, the “huEGFR^+ mcl-1^-/- MEF EC50” value worked out at 27 nM.

B28: AbB-TX (antibody, V domains shown)
VH: B1 VH
VL: B1 VL
modifications: synthon TX on reduced interchain Cys
In the case of B28, the “huEGFR^+ mcl-1^-/- MEF EC50” value was found to be 11 nM.

B29: AbK-ZZ (antibody, V domains shown)
VH: B1 VH with N31R, K55N
VL: B1 VL with N30T, S31Y, I33V, T52S, D56H, A92D, Q93D
modifications: synthon ZZ on reduced interchain Cys
In the case of B29, the “huEGFR^+ mcl-1^-/- MEF EC50” value was 45 nM.

B30: AbG-XW (antibody, V domains shown)
VH: B1 VH with P41L, F103L, W105Y
VL: B1 VL with N30T, S31Y, T52A, A92D, Q93E
modifications: synthon XW on reduced interchain Cys
As to B30, the “huEGFR^+ mcl-1^-/- MEF EC50” value stood at 19 nM.

B31: AbG-TV (antibody, V domains shown)
VH: B1 VH with P41L, F103L, W105Y
VL: B1 VL with N30T, S31Y, T52A, A92D, Q93E
modifications: synthon TV on reduced interchain Cys
As to B31, the “huEGFR^+ mcl-1^-/- MEF EC50” value amounted to 2.6 nM.

B32: AbK-KZ (antibody, V domains shown)
VH: B1 VH with N31R, K55N
VL: B1 VL with N30T, S31Y, I33V, T52S, D56H, A92D, Q93D
modifications: synthon KZ on reduced interchain Cys
Turning to B32, the “huEGFR^+ mcl-1^-/- MEF EC50” value turned out to be 224 nM.

B33: AbG-AAD (antibody, V domains shown)
VH: B1 VH with P41L, F103L, W105Y
VL: B1 VL with N30T, S31Y, T52A, A92D, Q93E
modifications: synthon AAD on reduced interchain Cys
Regarding B33, the “huEGFR^+ mcl-1^-/- MEF EC50” value came out at 108 nM.

B34: AbK-SR (antibody, V domains shown)
VH: B1 VH with N31R, K55N
VL: B1 VL with N30T, S31Y, I33V, T52S, D56H, A92D, Q93D
modifications: synthon SR on reduced interchain Cys
With B34, the “huEGFR^+ mcl-1^-/- MEF EC50” value came to 8.9 nM.

B35: AbB-KZ (antibody, V domains shown)
VH: B1 VH
VL: B1 VL
modifications: synthon KZ on reduced interchain Cys
As for B35, the “huEGFR^+ mcl-1^-/- MEF EC50” value came out at 55 nM.

B36: AbA-WD (antibody, V domains shown)
VH: B1 VH with N31R, K55N, W105Y
VL: B1 VL
modifications: synthon WD on reduced interchain Cys
Consider B36, for which the “huEGFR^+ mcl-1^-/- MEF EC50” value stood at 304 nM.

B37: AbK-SE (antibody, V domains shown)
VH: B1 VH with N31R, K55N
VL: B1 VL with N30T, S31Y, I33V, T52S, D56H, A92D, Q93D
modifications: synthon SE on reduced interchain Cys
With B37, the “huEGFR^+ mcl-1^-/- MEF EC50” value is 161 nM.

B38: AbB-YG (antibody, V domains shown)
VH: B1 VH
VL: B1 VL
modifications: synthon YG on reduced interchain Cys
On to B38, for which the “huEGFR^+ mcl-1^-/- MEF EC50” value stood at 3.3 nM.

B39: AbB-CZ (antibody, V domains shown)
VH: B1 VH
VL: B1 VL
modifications: synthon CZ on reduced interchain Cys
Turning to B39, the “huEGFR^+ mcl-1^-/- MEF EC50” value came out at 5.9 nM.

B40: AbB-XW (antibody, V domains shown)
VH: B1 VH
VL: B1 VL
modifications: synthon XW on reduced interchain Cys
As to B40, the “huEGFR^+ mcl-1^-/- MEF EC50” value is 0.65 nM.

B41: AbK-XW (antibody, V domains shown)
VH: B1 VH with N31R, K55N
VL: B1 VL with N30T, S31Y, I33V, T52S, D56H, A92D, Q93D
modifications: synthon XW on reduced interchain Cys
In the case of B41, the “huEGFR^+ mcl-1^-/- MEF EC50” value was 0.6 nM.

B42: AbK-CZ (antibody, V domains shown)
VH: B1 VH with N31R, K55N
VL: B1 VL with N30T, S31Y, I33V, T52S, D56H, A92D, Q93D
modifications: synthon CZ on reduced interchain Cys
For the molecule B42, the “huEGFR^+ mcl-1^-/- MEF EC50” value turned out to be 0.1 nM.

B43: AbB-AAD (antibody, V domains shown)
VH: B1 VH
VL: B1 VL
modifications: synthon AAD on reduced interchain Cys
B43: the “huEGFR^+ mcl-1^-/- MEF EC50” value is 4.6 nM.

B44: AbK-AAD (antibody, V domains shown)
VH: B1 VH with N31R, K55N
VL: B1 VL with N30T, S31Y, I33V, T52S, D56H, A92D, Q93D
modifications: synthon AAD on reduced interchain Cys
Regarding B44, the “huEGFR^+ mcl-1^-/- MEF EC50” value is 0.4 nM.

The values are drawn from patent US20190153108A1 (AbbVie / Abbott, published 2019).
